Measurements: patent US20170152308A1 (Biogen, published 2017)
Where two headings read alike, the source gives them in different places. No end group written: not given here.

Columns and labels:
[1] = target: T1, recombinant full-length His-tagged human TDP-43 (2-414) (human, UniProt Q13148 2-414); experiment: direct ELISA, coated antigen
T1 construct: Amino terminal His tag, made in E. coli, purified in 8 M urea; also called full length TDP-43; full-length TDP-43
In short: (§1)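 Plates coated overnight at 4° C with full-length TDP-43 at 5 μg/ml in carbonate buffer pH 9.6, with E. coli extract and BSA coated alongside. After blocking with 2% BSA, antibodies incubated 1 hr at room temperature and detected by HRP anti-human IgGγ colorimetric read-out. EC₅₀ from non-linear regression.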

[2] = target: T1, recombinant full-length His-tagged …; experiment: direct ELISA, coated antigen; remark: listed apart in the source
In short: as §1

[3] = target: T2, 6xHis-SUMO-TDP-43 (220-414) (human, UniProt Q13148 220-414); experiment: capture ELISA, antigen held by anti-6xHis antibody
T2 construct: Captured on the plate by an anti-6xHis antibody; also called 6xHis/SUMO tagged truncated TDP-43; not shown: N-terminal 6xHis and SUMO tags from a modified pET19-b vector
In short: (§2)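 Anti-6×His antibody captured 6×His-SUMO-TDP-43 (1.7 μM, 1 hr RT) in PBS with 1% BSA, 300 mM arginine and 0.1% PEG 5000, pH 7.5, avoiding direct adsorption. Three-fold antibody titrations were incubated 1 hr RT and detected with HRP anti-human IgG Fc colorimetrically. EC₅₀ from a four-parameter logistic fit.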

[4] = target: T3, His-huTDP-43 domain I (amino acid residues 2-106) (human); experiment: direct ELISA, His-tagged TDP-43 fragments coated at 6.6 ug/ml, OD 450
T3 construct: Amino terminal His-tagged fragment, E. coli; also called N-terminal domain
T3 chain: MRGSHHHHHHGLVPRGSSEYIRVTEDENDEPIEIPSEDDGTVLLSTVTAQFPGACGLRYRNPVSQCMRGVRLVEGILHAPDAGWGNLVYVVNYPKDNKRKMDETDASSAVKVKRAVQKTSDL
Protocol: (§3) Non-specific binding sites were blocked for 1 hr. at room temperature with PBST containing 2% BSA (Sigma, Buchs, Switzerland). Antibodies were incubated 1 hr. at room temperature. Binding was determined using either a donkey anti-human IgGγ-specific antibody conjugated with HRP (Jackson ImmunoResearch, USA) or a goat-anti mouse IgG (H+L)-specific secondary antibody conjugated with HRP (Jackson ImmunoResearch, USA)., followed by measurement of HRP activity in a standard colorimetric assay.

[5] = target: T4, His-huTDP-43 domain III (amino acid residues 183-273) (human); experiment: as above
T4 construct: Amino terminal His-tagged fragment, E. coli
T4 chain: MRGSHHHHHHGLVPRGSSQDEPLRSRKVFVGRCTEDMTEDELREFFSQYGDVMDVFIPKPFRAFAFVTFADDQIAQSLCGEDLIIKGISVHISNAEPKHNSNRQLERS
Protocol: as §3

[6] = target: T5, His-huTDP-43 domain IV (amino acid residues 258-414) (human, UniProt Q13148 258-414); experiment: as above
T5 construct: Amino terminal His-tagged fragment, E. coli, solubilized in 8 M urea; also called Glycine-rich domain
Protocol: as §3

[7] = target: T6, His-huTDP-43 domain II (amino acid residues 99-204) (human); experiment: direct ELISA, coated antigen; direct ELISA, domain coated at 6.6 ug/ml (Example 1, FIG. 2F)
T6 construct: Amino terminal His-tagged fragment, E. coli
T6 chain: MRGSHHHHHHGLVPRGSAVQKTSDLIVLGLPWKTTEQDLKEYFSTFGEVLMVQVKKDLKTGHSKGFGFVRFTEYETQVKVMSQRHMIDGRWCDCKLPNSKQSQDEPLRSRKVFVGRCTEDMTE
Protocol: as §3
(§4) The polypeptides were coated onto ELISA plates at equal coating concentration of 6.6 μg/ml (recombinant TDP-43 and TDP-43 fragments) or 3.3 μg/ml (synthetic peptides). Binding of the human-derived antibodies was determined by direct ELISA.

[8] = target: T7, 6xHis-SUMO-TDP-43 (1-414), properly folded full length (human, UniProt Q13148 1-414); experiment: capture ELISA, antigen held by anti-6xHis antibody
T7 construct: Purified with KSCN and arginine, monomeric; captured on the plate by an anti-6xHis antibody; also called folded full-length TDP-43; 6xHis/SUMO tagged full length TDP-43; not shown: N-terminal 6xHis and SUMO tags from a modified pET19-b vector
In short: as §2

[9] = target: T3, His-huTDP-43 domain I (amino acid …); experiment: direct ELISA, coated antigen; direct ELISA, domain coated at 6.6 ug/ml (Example 7, FIG. 5)
Protocol: as §3
(§5) Binding of the human-derived antibodies was determined by direct ELISA.

[10] = target: T8, mutant TDP-43 domain IV (TDP-43 258-414 AMM321GGG) (human, UniProt Q13148 258-414); experiment: direct ELISA, coated antigen
T8 construct: Recombinant
T8 chain: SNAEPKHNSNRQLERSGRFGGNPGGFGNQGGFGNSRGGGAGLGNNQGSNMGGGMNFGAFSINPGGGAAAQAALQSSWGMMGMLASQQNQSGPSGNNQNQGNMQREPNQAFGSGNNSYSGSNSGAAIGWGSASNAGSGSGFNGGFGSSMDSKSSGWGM

[11] = target: T9, TDP-43 C terminal fragment 258-319 (human, UniProt Q13148 258-319); experiment: direct ELISA, coated fragments
T9 construct: Recombinant fragment

[12] = target: T10, TDP-43 C terminal fragment 340-414 (human, UniProt Q13148 340-414); experiment: direct ELISA, coated fragments
T10 construct: Recombinant fragment

[13] = target: T11, synthetic biotinylated peptide TDP-43 316-353 (human, biotinylated (site not stated)); experiment: direct ELISA, biotinylated peptide on streptavidin plate
T11 construct: On streptavidin-coated plates
T11 peptide: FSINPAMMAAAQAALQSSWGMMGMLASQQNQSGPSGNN

[14] = target: T12, synthetic biotinylated peptide TDP-43 316-343 (human, biotinylated (site not stated)); experiment: as above
T12 construct: On streptavidin-coated plates
T12 peptide: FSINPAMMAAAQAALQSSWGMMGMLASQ

[15] = target: T13, synthetic biotinylated peptide TDP-43 316-333 (human, also: biotinylated (site not given here)); experiment: as above
T13 construct: On streptavidin-coated plates
T13 peptide: FSINPAMMAAAQAALQSS

BSA = target: T14, BSA (bovine, UniProt P02769); experiment: direct ELISA, BSA coated at 5 ug/ml as control, OD 450
T14 construct: control coating in the EC50 ELISA; also called bovine serum albumin (Sigma, Buchs, Switzerland)
T14 sequence (P02769 25-607 limits assumed): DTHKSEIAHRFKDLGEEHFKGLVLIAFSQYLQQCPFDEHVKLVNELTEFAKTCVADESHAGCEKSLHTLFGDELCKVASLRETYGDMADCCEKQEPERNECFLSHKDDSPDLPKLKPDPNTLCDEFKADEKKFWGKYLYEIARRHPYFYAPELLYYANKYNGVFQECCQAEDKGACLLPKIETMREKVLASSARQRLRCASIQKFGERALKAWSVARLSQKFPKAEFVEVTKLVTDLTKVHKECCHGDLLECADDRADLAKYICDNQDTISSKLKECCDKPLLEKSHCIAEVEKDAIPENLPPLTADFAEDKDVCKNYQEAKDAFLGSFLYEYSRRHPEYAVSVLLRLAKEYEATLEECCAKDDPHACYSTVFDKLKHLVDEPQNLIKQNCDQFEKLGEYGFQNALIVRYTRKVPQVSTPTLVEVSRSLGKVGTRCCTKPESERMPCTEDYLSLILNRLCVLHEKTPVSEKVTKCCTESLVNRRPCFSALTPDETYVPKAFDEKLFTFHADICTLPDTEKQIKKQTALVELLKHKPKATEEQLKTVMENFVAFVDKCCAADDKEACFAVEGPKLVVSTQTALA
Protocol: To determine the half maximal effective concentration (EC₅₀) of the human-derived TDP-43-specific antibodies for human TDP-43 and to evaluate target-specificity, 96 well microplates (Corning) were coated with recombinant full length TDP-43 (Biogen Idec, USA), Escherichia coli extract and BSA (Sigma, Buchs, Switzerland), diluted to a concentration of 5 μg/ml in carbonate ELISA coating buffer (pH 9.6) overnight at 4° C. […] Non-specific binding sites were blocked for 1 hr. at room temperature with PBS containing 2% BSA (Sigma, Buchs, Switzerland). Human TDP-43-specific antibodies were diluted to the indicated concentrations and incubated 1 hr. at room temperature. Binding was determined using a donkey anti-human IgGγ-specific secondary antibody conjugated with HRP (Jackson ImmunoResearch, USA), followed by measurement of HRP activity in a standard colorimetric assay. EC₅₀ values were estimated by a non-linear regression using GraphPad Prism software (San Diego, USA).
The half maximal effective concentration (EC₅₀) of the human-derived TDP-43-specific antibodies for human TDP-43 and their target target-specificity was determined substantially as described in Example 2 above. […]

[16] = target: T3, His-huTDP-43 domain I (amino acid …); experiment: direct ELISA, TDP-43 fragments coated at 6.6 ug/ml, OD 450
Protocol: as §3

[17] = target: T6, His-huTDP-43 domain II (amino acid …); experiment: direct ELISA, His-tagged TDP-43 fragments coated at 6.6 ug/ml, OD 450
Protocol: as §3

[18] = target: T3, His-huTDP-43 domain I (amino acid …); experiment: direct ELISA, coated antigen; direct ELISA, domain coated at 6.6 ug/ml (Example 1, FIG. 2H)
Protocol: as §3, §4

[19] = target: T6, His-huTDP-43 domain II (amino acid …); experiment: direct ELISA, TDP-43 fragments coated at 6.6 ug/ml, OD 450
Protocol: as §3

[20] = target: T4, His-huTDP-43 domain III (amino acid …); experiment: as above
Protocol: as §3

[21] = target: T5, His-huTDP-43 domain IV (amino acid …); experiment: as above
Protocol: as §3

[22] = target: T3, His-huTDP-43 domain I (amino acid …); experiment: direct ELISA, coated antigen; direct ELISA, domain coated at 6.6 ug/ml (Example 7, FIG. 5M)
Protocol: as §3, §5

B1: NI-205.113C4 (antibody, human IgG1, V domains shown)
VH: QVQLVQSGAEVKKPGASVKVSCKASGYTFTNYYMHWVRQAPGQGLEWMGIINPSGGRTSYAQKFQGRASMTRDTSTSTVYMEVISLRSEDTAVYYCARQRPSGYSGYGPSESYGNPTDDAFDVWGQGTTVTVSS
VL: SYVLTQPPSVSVAPGQTARITCGGNNIGSRGVHWYQQRPGQAPVLVVYDDSDRPSGIPERFSGSNSGDTATLTISRVEVGDEADYYCQVWDNSSDHLVVFGGGTKLTVL
notes: Human-derived
EC50 [1]: 13.2 nM | EC50 [2]: 13.2 nM | binding result [3]: no binding | binding result [4]: no binding | binding result [5]: no binding | binding result [6]: no binding | binding result [7]: binds

B2: NI-205.29E11 (antibody, human IgG1, V domains shown)
VH: QVQLVQSGAEVKKPGASVKVSCKASGYIFTDYFIHWIRQAPGQGLEWMGWIKPKSGGTDYAEKFQGRVTLTRDTSITTVYMELSRLNSDDTAVYYCARLKYSVPDSDYWGQGTLVTVSS
VL: DVVMTQSPLSLPVTLGQSASISCRSSQGLVHSDGNTYLNWFHQRPGQSPRRLIYKVFNRDSGVSDRFSGSGSGSDFTLMISRVEAEDVGIYYCMQGTLWPLTFGQGTKVEIK
notes: Human-derived
EC50 [2]: 10.4 nM | EC50 [8]: > 100 nM | EC50 [3]: > 97 nM | binding result [9]: binds

B3: NI-205.41D1 (antibody, human IgG1, V domains shown)
VH: EVQLVESGGGLVQPGGSLRLSCAASGFTFSTYYMSWVRQAPGKGLEWVANIKQDGSEKYYVDSVKGRFTISRDNARNSLYLQMHSLRAEDTAVYYCASPPGWWGQGTLVTVSS
VL: DIVMTQTPLSLSVTPGQPASISCKSSQSLLHSDGKTYLYWYLQKPGQPPQLLIYEVSNRFSGVPDRFSGSGSGTDFTLKISRVEAEDVGVYYCMQSIQLPVTFGGGTKVEIK
notes: Human-derived; also called NI-41D1
binding result [10]: no binding | binding result [11]: no binding | binding result [12]: no binding | EC50 [3]: 0.1 nM | binding result [13]: binds | binding result [14]: binds | binding result [15]: no binding | binding result (BSA): no binding (tested: about 4x10^5 pM) | binding result [16]: no binding

B4: NI-205.87E7 (antibody, human IgG1, V domains shown)
VH: EVQLLESGGGLVQPGGSLRLSCAASGFTFSSYAMSWVRQAPGKGLEWVSAISGGGDRTYSADSVKGRFTISRDNSKNTLYLQINSLRVEDTAVYYCAQGGGGEMTAVTMDGTYYGMDVWGQGTTVTVSS
VL: QSALTQPRSVSGSPGQSITISCTGTSSNVGTYKFVSWYQQHPGKAPKLMIYDVTKRPSGVPDRFSGSKSGNTASLTISGLQAEDEADYYCCSYAGSYTYVFGSGTKVTVL
notes: Human-derived
EC50 [1]: 17.2 nM | EC50 [2]: 17.2 nM | binding result [3]: no binding | binding result [17]: no binding | binding result [5]: no binding | binding result [6]: no binding | binding result [18]: binds

B5: NI-205.8C10 (antibody, human IgG1, V domains shown)
VH: EVQLVESGGGLVNPGGSLRLSCTASGFSFSTYSMNWVRQAPGKGLEWVSLITSSGSYIYYADSVKGRFTISRDDAKNSLYLQMNSLRAEDTAVYYCANMLAAAGSHYFHYWGQGTLVTVSS
VL: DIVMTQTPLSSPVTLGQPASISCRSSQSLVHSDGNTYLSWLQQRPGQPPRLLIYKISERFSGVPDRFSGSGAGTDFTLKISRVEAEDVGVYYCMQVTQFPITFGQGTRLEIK
notes: Human-derived
EC50 [2]: 15.6 nM | binding result [19]: no binding | binding result [20]: no binding | binding result [21]: no binding | binding result [22]: binds
